B1: HEEH_KT_rd6_0007 (parent)
chain: SIEEEIKKAEEAKEKGKTFIHGDFVATTEELLDELLKRLRKKL

Variants of: B1
Experiment: folding stability dG (cDNA display proteolysis); higher = more stable
Conditions: PBS, room temperature

Row | Variant | folding stability dG [kcal/mol]
1 | SIEEEIKKAEEAKEKGKTFIHGDFVATTEELLDELLKTLRKKL | 1.15
2 | SIEEEIKKAEEAKEKGKTFIHGDFVATTEELLDELLKVLRKKL | 1.37
3 | SIEEEIKKAEEAKEKGKTFIHGDFVATTEELLDELLKWLRKKL | 2
4 | SIEEEIKKAEEAKEKGKTFIHGDFVATTEELLDELLKYLRKKL | 2.01
5 | SIEEEIKKAEEAKEKGKTFIHGDFVATTEELLDELLKRARKKL | 0.168
6 | SIEEEIKKAEEAKEKGKTFIHGDFVATTEELLDELLKRERKKL | -0.449
7 | SIEEEIKKAEEAKEKGKTFIHGDFVATTEELLDELLKRFRKKL | 0.806
8 | SIEEEIKKAEEAKEKGKTFIHGDFVATTEELLDELLKRGRKKL | -0.429
9 | SIEEEIKKAEEAKEKGKTFIHGDFVATTEELLDELLKRHRKKL | 0.059
10 | SIEEEIKKAEEAKEKGKTFIHGDFVATTEELLDELLKRIRKKL | 0.845
11 | SIEEEIKKAEEAKEKGKTFIHGDFVATTEELLDELLKRKRKKL | 0.102
12 | SIEEEIKKAEEAKEKGKTFIHGDFVATTEELLDELLKRMRKKL | 0.977
13 | SIEEEIKKAEEAKEKGKTFIHGDFVATTEELLDELLKRNRKKL | 0.087
14 | SIEEEIKKAEEAKEKGKTFIHGDFVATTEELLDELLKRPRKKL | -0.251
15 | SIEEEIKKAEEAKEKGKTFIHGDFVATTEELLDELLKRQRKKL | -0.059
16 | SIEEEIKKAEEAKEKGKTFIHGDFVATTEELLDELLKRRRKKL | 0.516
17 | SIEEEIKKAEEAKEKGKTFIHGDFVATTEELLDELLKRSRKKL | 0.093
18 | SIEEEIKKAEEAKEKGKTFIHGDFVATTEELLDELLKRTRKKL | -0.05
19 | SIEEEIKKAEEAKEKGKTFIHGDFVATTEELLDELLKRVRKKL | 0.079
20 | SIEEEIKKAEEAKEKGKTFIHGDFVATTEELLDELLKRWRKKL | 0.902

Row | Variant | folding stability dG [kcal/mol]
21 | SIEEEIKKAEEAKEKGKTFIHGDFVATTEELLDELLKRYRKKL | 0.697
22 | SIEEEIKKAEEAKEKGKTFIHGDFVATTEELLDELLKRLAKKL | 0.53
23 | SIEEEIKKAEEAKEKGKTFIHGDFVATTEELLDELLKRLCKKL | 1.31
24 | SIEEEIKKAEEAKEKGKTFIHGDFVATTEELLDELLKRLDKKL | -0.199
25 | SIEEEIKKAEEAKEKGKTFIHGDFVATTEELLDELLKRLEKKL | -0.182
26 | SIEEEIKKAEEAKEKGKTFIHGDFVATTEELLDELLKRLFKKL | 1.1
27 | SIEEEIKKAEEAKEKGKTFIHGDFVATTEELLDELLKRLGKKL | 0.155
28 | SIEEEIKKAEEAKEKGKTFIHGDFVATTEELLDELLKRLHKKL | 0.662
29 | SIEEEIKKAEEAKEKGKTFIHGDFVATTEELLDELLKRLIKKL | 0.776
30 | SIEEEIKKAEEAKEKGKTFIHGDFVATTEELLDELLKRLKKKL | 0.773
31 | SIEEEIKKAEEAKEKGKTFIHGDFVATTEELLDELLKRLLKKL | 1.02
32 | SIEEEIKKAEEAKEKGKTFIHGDFVATTEELLDELLKRLMKKL | 0.877
33 | SIEEEIKKAEEAKEKGKTFIHGDFVATTEELLDELLKRLNKKL | 0.359
34 | SIEEEIKKAEEAKEKGKTFIHGDFVATTEELLDELLKRLPKKL | -0.336
35 | SIEEEIKKAEEAKEKGKTFIHGDFVATTEELLDELLKRLQKKL | 0.495
36 | SIEEEIKKAEEAKEKGKTFIHGDFVATTEELLDELLKRLSKKL | 0.38
37 | SIEEEIKKAEEAKEKGKTFIHGDFVATTEELLDELLKRLTKKL | 0.465
38 | SIEEEIKKAEEAKEKGKTFIHGDFVATTEELLDELLKRLVKKL | 0.699
39 | SIEEEIKKAEEAKEKGKTFIHGDFVATTEELLDELLKRLWKKL | 1.23
40 | SIEEEIKKAEEAKEKGKTFIHGDFVATTEELLDELLKRLYKKL | 1.69

Row | Variant | folding stability dG [kcal/mol]
41 | SIEEEIKKAEEAKEKGKTFIHGDFVATTEELLDELLKRLRAKL | 1.57
42 | SIEEEIKKAEEAKEKGKTFIHGDFVATTEELLDELLKRLRDKL | 1.1
43 | SIEEEIKKAEEAKEKGKTFIHGDFVATTEELLDELLKRLREKL | 1.19
44 | SIEEEIKKAEEAKEKGKTFIHGDFVATTEELLDELLKRLRFKL | 0.949
45 | SIEEEIKKAEEAKEKGKTFIHGDFVATTEELLDELLKRLRGKL | 0.924
46 | SIEEEIKKAEEAKEKGKTFIHGDFVATTEELLDELLKRLRHKL | 1.15
47 | SIEEEIKKAEEAKEKGKTFIHGDFVATTEELLDELLKRLRIKL | 1.2
48 | SIEEEIKKAEEAKEKGKTFIHGDFVATTEELLDELLKRLRLKL | 1.42
49 | SIEEEIKKAEEAKEKGKTFIHGDFVATTEELLDELLKRLRMKL | 1.38
50 | SIEEEIKKAEEAKEKGKTFIHGDFVATTEELLDELLKRLRNKL | 1.11
51 | SIEEEIKKAEEAKEKGKTFIHGDFVATTEELLDELLKRLRPKL | 0.057
52 | SIEEEIKKAEEAKEKGKTFIHGDFVATTEELLDELLKRLRQKL | 1.41
53 | SIEEEIKKAEEAKEKGKTFIHGDFVATTEELLDELLKRLRRKL | 1.54
54 | SIEEEIKKAEEAKEKGKTFIHGDFVATTEELLDELLKRLRSKL | 1.12
55 | SIEEEIKKAEEAKEKGKTFIHGDFVATTEELLDELLKRLRTKL | 1.04
56 | SIEEEIKKAEEAKEKGKTFIHGDFVATTEELLDELLKRLRVKL | 1.07
57 | SIEEEIKKAEEAKEKGKTFIHGDFVATTEELLDELLKRLRWKL | 1.08
58 | SIEEEIKKAEEAKEKGKTFIHGDFVATTEELLDELLKRLRYKL | 0.949
59 | SIEEEIKKAEEAKEKGKTFIHGDFVATTEELLDELLKRLRKAL | 1.42

— the MegaScale stability set (Tsuboyama et al. 2023)
